This note sets out measurements from the nanobody polyreactivity screen of Harvey et al. (2022).

A short description of the series: yeast display, Sf9 membrane polyspecificity reagent, FACS + sequencing; frameworks hold sequencing errors. In short, it runs like this:
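After 36–48 hours of galactose induction, yeast (Saccharomyces cerevisiae BJ5465) displaying a synthetic nanobody library were stained at 4 °C for 1 hour with 10% biotinylated, detergent-solubilized Sf9 membrane reagent. Streptavidin microbeads enriched the stained cells before FACS sorting into low and high (top ~1%) gates on anti-HA and streptavidin fluorescence. Each clone's polyreactivity label reflects its gate of origin.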
With “QVQLVESGGGLVQAGGSLPLSCAASGFTFYRYTMVWYRQAPGKERELVAAISRGGRTYYADSVKGRFTISRDNAKNTDYLQMNSLKPEDTAVYYCNARYPSADDWGQGTQVTVSS”, the “polyreactivity (PSR sort gate)” value is listed as “high polyreactivity”.

“QVQLVESGGGLVQAGGSLPLSCAASGIIFPYNAMGWSRQAPGKERELVAAITGGGSTYYADSVKGRFTISRDNAKNTVYLPMNSLKPEDSAVYYCAADGSGPGYDYWGQGTQVTVSS”: the “polyreactivity (PSR sort gate)” value is “low polyreactivity”.

Turning to “QVQLVESGGGLVQAGGSLPLSCAASGLIINYYVMGWYRQAPGKERELVAANTISGGRSYYADSVKVRFTISRDNAKNTVYLQMKCLNPEDTAVYYCARRFGPYRKGYQSYGIYDYWGQGTHVTVSS”, the “polyreactivity (PSR sort gate)” value is recorded as “high polyreactivity”.

Consider “QVQLVESGGGLVQAGGSLPLSCAASGRIFWDYDMGRYRQAHGKERELVAVITFSGDSTYYADSVKGRFTISRDNAKNTVYLQMNSLKPEDTAVYYCASARAIRQFWYVATFEYWGQGTQVTVSS”, for which the “polyreactivity (PSR sort gate)” value was “low polyreactivity”.

On to “QVQLVESGGGLVQAGGSLPLSCAASGSTFGSYAMGWYRQAPGKERELVAAISYSGGSTYYADSVKGRFTISRDNEKNTVFLQMNSLKPEDTAVYYCATVRKYRAMDYWGQGTQVSVSS”, for which the “polyreactivity (PSR sort gate)” value is listed as “high polyreactivity”.

Regarding “QVQLVESGGGLVQAGGSLPLSCAASGSTLSGYAMGWYRQAPGKEREMVAAITKSGGRTYYADSVKGRFTISRDNAKNTVYLQMNSLKPEDTAVYYCAKAYPGTYREYDYWGQGTQVTVSS”, the “polyreactivity (PSR sort gate)” value is “high polyreactivity”.

As to “QVQLVESGGGLVQAGGSLPLSCAASRRTLYTNTMGWYRQAPGKESELDAGISKRGGSTYYADSVKGRFTITRDTAKNTVYLQMNSRKPEDTAVYYCNAPVSYWSRFRSPIYEYWGQGTQVTVSS”, the “polyreactivity (PSR sort gate)” value was “high polyreactivity”.

Take “QVQLVESGGGLVQAGGSLPLSCAATGRTFSYNAMGSYRQAPAKETELVAAISSGGTTNYADSVKGRFTISRDNAKNTVYLQMNSVKPDDTAVYYCNADRLVWSFTDYGFSQYDYWGQGTQVTVSS”: the “polyreactivity (PSR sort gate)” value is reported as “low polyreactivity”.

“QVQLVESGGGLVQAGGSLRFICAASGGISSSNAMGWYRQAHGKERELVAGINSRGGSTYADSVKGRFTISRANAKNTVYLQMNSLKPEDTAVYYCAAAPTYKWRRKNYDYWGQGTQVTVAS”: the “polyreactivity (PSR sort gate)” value was “high polyreactivity”.

In the case of “QVQLVESGGGLVQAGGSLRFRCAASGFTFGHYAIVWYRQAPGKERELVAAISKSGTRTYYADSVKGRFTISRDNAKNTVYLQMTSLKPEDTAVYYCATTAYNGYDYWGQGTQVTVSS”, the “polyreactivity (PSR sort gate)” value is on record as “high polyreactivity”.

“QVQLVESGGGLVQAGGSLRFSCAASGFIFRDNAMVWYRRAPGKERELVAAISYSGGSTYYADSVKGRFTISRDNAKNTVYLQMNSVKPEDTAVYYCAASYGPKRRGYWGQGTQVTVSS”: the “polyreactivity (PSR sort gate)” value is on record as “high polyreactivity”.

On to “QVQLVESGGGLVQAGGSLRFSCAASGFTFSVYAMGWYRQAPGTEMELVAAIHWSGGSTYYADSVKGRFTISRDNAKNTVYLQMNSLKPEDTAVYYCNTLYWYTRHVVDYWGQGTQVTVSS”, for which the “polyreactivity (PSR sort gate)” value was “high polyreactivity”.

“QVQLVESGGGLVQAGGSLRFSCAASGGIFWYNAMGWYRQAPGKERELVAAISASTGSTYYADSVKGRFTISRDNAKNTVYLQMNSLKPEDTAVYYCAATRYRSARYAYGHWGQGTQVTVSS”: the “polyreactivity (PSR sort gate)” value is “high polyreactivity”.

Consider “QVQLVESGGGLVQAGGSLRFSCAASGGTFQGNAMGWYRQAPGKEREFVATITRGGGSTYYADSVKGRFTISRDNAKNTVYLQMNSLKPEDTAVYYCNAKPSYYQRYNYWGQGTQVTVSS”, for which the “polyreactivity (PSR sort gate)” value is recorded as “high polyreactivity”.

On to “QVQLVESGGGLVQAGGSLRFSCAASGINIWTNVMGWYIQAPRKESEFVAAISRSGGSTYYADSVKGSFTISRDNAKNTVYLQMISLKPEDTAVYYCAARWSYSVQKFDYWGQGTQLTVSS”, for which the “polyreactivity (PSR sort gate)” value is given as “high polyreactivity”.

For the sequence “QVQLVESGGGLVQAGGSLRFSCAASGRIFGGNTMGWYRQAPGKERELVATIRSGDSTYYADSVKGRFTISRDNAKNTVYLQMNSLKPEDTAVYYCGYDYWGQGTQVTVSS”, the “polyreactivity (PSR sort gate)” value is “low polyreactivity”.

For the sequence “QVQLVESGGGLVQAGGSLRFSCAASGRTFVPYAMGWYRQAPGKERELVARIDSSGGSTYYADSVKGRFTISRDNAKNTVYLQMNSLKPEDTAVYYCAAVFYYWSLRSYYWGQGTQVTVSS”, the “polyreactivity (PSR sort gate)” value is on record as “high polyreactivity”.

On to “QVQLVESGGGLVQAGGSLRFSCAASGRTIWTYVMGWYRQAPGKERELVAAISRSGSSTYYADSVKGRFTISRDNAKNTVYLQMNSLKPEDTAVYYCNKVDGTTLDDHYMDYWGQGTQVTVAS”, for which the “polyreactivity (PSR sort gate)” value is recorded as “low polyreactivity”.

For “QVQLVESGGGLVQAGGSLRFSCAASGSIFITYAMGWYRQAPGKERELVAAISRSGGSTYYADSVKGRFTISRDNAKNTVYLQMNSLKPEDTAVYYCAAYPYSAGRYYYWGQGTQVTVSS”, the “polyreactivity (PSR sort gate)” value is reported as “high polyreactivity”.

“QVQLVESGGGLVQAGGSLRFSCAASGSIFSSYAMGWYRQAPGKERELVAAISSSGDSTYADSVKGRFTISRDNAKNTVYLQMNSLKPEDTAVYYCAVGGAGSDDYWGQGTQVTVSS”: the “polyreactivity (PSR sort gate)” value is recorded as “low polyreactivity”.

Consider “QVQLVESGGGLVQAGGSLRFSCAASGSIFYRNAMGWDRQAPGKEREMVAAISASSGRTYYADSVKGRFTISRDNAKNTVYLQMNSLKPEDTAVYYCAVRPYRSAGGSVTRGAYYYWGQGTQVTVSS”, for which the “polyreactivity (PSR sort gate)” value is recorded as “high polyreactivity”.

For “QVQLVESGGGLVQAGGSLRFSCAASGSTFAYNDMGWYRQAPGKERELVADIRSGGNTNYADSVKGRFTISRDNAKNTVYFQMNSLKPEDTAVYYCATDGYRIDVYHPDYRYDYWGQGTQVTVSS”, the “polyreactivity (PSR sort gate)” value is “low polyreactivity”.

Turning to “QVQLVESGGGLVQAGGSLRFSCAASGSTFGYYAMGWYRQAPGKEREMVAVITYSGGSTYYADSVKGRFTISRDNAKNTVYLQMNSLKPEDTAVYYCATDNYDWSSWAFRGYWYDYWGQGTQVTVSS”, the “polyreactivity (PSR sort gate)” value is given as “low polyreactivity”.

With “QVQLVESGGGLVQAGGSLRFSCAASGSTFPSYAMGWYRQAPGKERELVAAITNGGSTTYADSVKGRFTISRDNAKITDYLQMNSLKPEDTAVYYCAARYYYYYYIRRDYWGQGTQVTVSS”, the “polyreactivity (PSR sort gate)” value is “low polyreactivity”.

On to “QVQLVESGGGLVQAGGSLRFSCAASGSTIPPNAMGWYRQAPGKERELVAAINSTGSTNYADSVKGRFTISRDNAKNTVSLQMNSLQPEDTAVYYCAAEGLPYVRVFDFVSRYDYWGQGTQVTVSS”, for which the “polyreactivity (PSR sort gate)” value is recorded as “low polyreactivity”.

For the sequence “QVQLVESGGGLVQAGGSLRFSCAASGTFVPYAMGWYRQAPGKEMELVARITWRGGSTYYADSVKGRFTISRDNAKNTVDLQLNSLKPEDTAVYYCATVSDNRYYYWGQGTQVTVSS”, the “polyreactivity (PSR sort gate)” value is “low polyreactivity”.

In the case of “QVQLVESGGGLVQAGGSLRFSCAASRFNFYDYVMGWYRQAPGKYRELVAAISSNGGSTYYADSVKGRFTISRDNAKNTVYFQMYSLKPEDTAVYYCAVTENSKSNKIRPDQGDYWGQGTQVTVSS”, the “polyreactivity (PSR sort gate)” value is “high polyreactivity”.

Regarding “QVQLVESGGGLVQAGGSLRFSCPASGSILTGYAMGWYRQAPGKERELVAAINFSGDNTYYADSVKGRFTISRDNAKNTVFLPMNSLKPEDTAVYYCNADGRYAYVWYDYCGQGTQVTVSS”, the “polyreactivity (PSR sort gate)” value is “low polyreactivity”.

Regarding “QVQLVESGGGLVQAGGSLRIICAASGFIFKYYAMGWYRQAPGKERELVAAISSGGSTKYADSVKGRFTISRDNAKNTVYLQMNSLIPEDTAVYYCNADWYWKYDYWGQGTQVTVSS”, the “polyreactivity (PSR sort gate)” value was “high polyreactivity”.

Consider “QVQLVESGGGLVQAGGSLRIICAASGRIFSNYAMGWYRQAPGKERELVAAITYSTSRTYYADSVKGRFTISRDNAKNTVYLHMNSLKPEDTAVDYCAAGRGPYYRSRTPLYYWGQGTQVTVSS”, for which the “polyreactivity (PSR sort gate)” value is recorded as “high polyreactivity”.

Regarding “QVQLVESGGGLVQAGGSLRIISAASGSTFRWYDMGWYRQAPGKEMELVAAITGSGGATYYADSVKGRFTIARDYAKNTVYLQKNRLKPEDTAVYYCAAVWWVPLAYDDYDYWGQGTQVTVSS”, the “polyreactivity (PSR sort gate)” value was “high polyreactivity”.

For the sequence “QVQLVESGGGLVQAGGSLRISCAASGFIFGGYAMGWYRQAPGKERELVAAISYSGGSTYYADSVKGRFTISRDNAKNTVYLQMNSLKPEDTAVYYCAVGYPYRYDYWGQGTQVTVSS”, the “polyreactivity (PSR sort gate)” value is given as “high polyreactivity”.

“QVQLVESGGGLVQAGGSLRISCAASGFIFGPNAMGWYRQAPGKERELVAAITYSGGSTYYADSVKGRFTISRDNAKNTVYLQMNSLKPEDTAVYYCAADLYTLRYGYRYEYWGQGTQVTVSS”: the “polyreactivity (PSR sort gate)” value is reported as “high polyreactivity”.

Turning to “QVQLVESGGGLVQAGGSLRISCAASGFIFRSYAMGWYRQAPGKERELVAAISRSGGSTYYADSVKGRFTISRDNAKNTVYLQMNSLKPEDTAVYYCATDGGRSTARGYGHWGQGTQVTVSS”, the “polyreactivity (PSR sort gate)” value is “high polyreactivity”.

As for “QVQLVESGGGLVQAGGSLRISCAASGFIIFEYDMGWYRQAPGKERDFVAAINFSGGSTYYADSEKGRFTISRDNAKNTVYLQMNSLKPEDTAVYYCAADVVRYYYTYDYWGQGTQVTVSS”, the “polyreactivity (PSR sort gate)” value is given as “low polyreactivity”.

In the case of “QVQLVESGGGLVQAGGSLRISCAASGFILKDNAMGWYRQAPGKERELFAAISSGGGTYYADSEKGRFTITRDNAKNTVYLQMNSLNPEDTAVYYCNGDDLYSLNDSSEDYWGQGSQVTVSS”, the “polyreactivity (PSR sort gate)” value is on record as “high polyreactivity”.

“QVQLVESGGGLVQAGGSLRISCAASGFILTGYTMGWYRQAPGKERELVAAISWSGARTYYADSVKGRFTISRDNAMNTVYLQMNSLKPEDTAVYYCARDYYRPTQRYDYWGQGTQVTVSS”: the “polyreactivity (PSR sort gate)” value was “high polyreactivity”.

For “QVQLVESGGGLVQAGGSLRISCAASGFTFEDNTMGWYRQAPGKERELVAAITWGGVSTYYADSVKGRFTISRDNAKNTVYLQMNSLKPEDTAVYYCARDYDVYTVFLMDYWGQGTQVNVSS”, the “polyreactivity (PSR sort gate)” value is recorded as “low polyreactivity”.

On to “QVQLVESGGGLVQAGGSLRISCAASGFTFGPYAMGWYRQAPGKERELVAAISQSGGRTSYADSVKGRFTISRDNAKNTVYLQMNSLKPEDTAVYYCAKRAYGYRSIYRMDYWGQGTQVTVSS”, for which the “polyreactivity (PSR sort gate)” value is recorded as “high polyreactivity”.

Take “QVQLVESGGGLVQAGGSLRISCAASGFTFQYYAMGWYRQAPGKERELVATITTSGGNTYYADSVKGRFTISRDNEKNTVYLQMNCLNPEDTAVYYCAARRYRASSRGYGYWGQGTQVTVSS”: the “polyreactivity (PSR sort gate)” value is reported as “high polyreactivity”.

As to “QVQLVESGGGLVQAGGSLRISCAASGFTFSAYAMGRYRQAPGKERELVAAISWSGSRTYYADSVKGRFTISRDNAKNTVYLQMNSLKPEDTAVYYCAKEPYDTFGFYEYDYWGQGTQVNVSS”, the “polyreactivity (PSR sort gate)” value is on record as “low polyreactivity”.
